{
  "source": "patent US5258292A",
  "about": "“Enzymic process for the synthesis of ammonium adipate” (Rhone-Poulenc Chimie, priority 1990, dated 1993)",
  "molecules": {"B1": {"name": "enantioselective amidase of a Rhodococcus: enzyme purified to homogeneity from a Rhodococcus; sequence in FIG. 14 (protein)", "chain": "GLHELTLAQVAAKIENKELSPVELLDVILARVAEIEPKISAFVTITADSARKAARLAADEIAGGHYRGPLHGVPIGLKDLFEVAGVPNTASSRVRADYIPSSDGAAVEKLTAGGAVMIGKTHTHEFAYGAITPTTRNPWDPTRTPGGSSGGTAAALAAGLIFAGMGTDTGGSIRIPAAVCGTVGLKPTYGRVSRRGVTSLSWSLDHAGPLARTVEDAAIMLNQIAGYDRADPATVDVPVPDYAAALTGDVRGLRIGVPTNFYTDNVHPEVAAAADAAVAQLAHLGAVVREVKIPMAEVIVPTEWSLLVPEASAYHQQMLRERADHYTDETRTFLEAGELVPATDYIKALRVRTLIQAAFRELFQDIDVLIAPTVSSPALPLDDLEVTWPDGTSEGGTITYVRLSAPGNVTGLPALSVPSGFTEQGLPTGIQIIGRPFDEETVLNVGHAYEGCTDWPRLAPL"}, "B2": {"name": "enantioselective amidase of Brevibacterium R 312: enzyme purified from Brevibacterium R 312, purity of more than 80%; sequence in FIG. 9 (protein)", "chain": "MATIRPDDKAIDAAARHYGITLDKTARLEWPALIDGALGSYDVVDQLYADEATPPTTSAEHAVPSASENPLSAWYVTTSIPPTSDGVLTGRRVAIKDNVTVAGVPMMNGSRTVEGFTPSRDATVVTRLLAAGATVAGKAVCEDLCFSGSSFTPASGPVRNPWDRQREAGGSSGGSAALVANGDVDFAIGGDQGGSIRIPAAFCGVVGHKPTFGLVPYTGAFPIERTIDHLGPITRTVHDAALMLSVIAGRDGNDPRQADSVEAGDYLSTLDSDVDGLRIGIVREGFGHAVSQPEVDDAVRAAAHSLTEIGCTVEEVNIPWHLHAFHIWNVIATDGGAYQMLDGNGYGMNAEGLYDPELMAHFASRRIQHADALSETVKLVALTGHHGITTLGGASYGKARNLVPLARAAYDTALRQFDVLVMPTLPYVASELPAKDVDRATFITKALGMIANTAPFDVTGHPSLSVPAGLVNGLPVGMMITGRHFDDATVLRVGRAFEKLRGAFPTPAERASNSAPQLSPA"}},
  "key": {"enantioselective amidase": {"molecular_target": "T1, enantioselective amidase (Rhodococcus erythropolis, UniProt P22984)", "T1 sequence (P22984 2-521)": "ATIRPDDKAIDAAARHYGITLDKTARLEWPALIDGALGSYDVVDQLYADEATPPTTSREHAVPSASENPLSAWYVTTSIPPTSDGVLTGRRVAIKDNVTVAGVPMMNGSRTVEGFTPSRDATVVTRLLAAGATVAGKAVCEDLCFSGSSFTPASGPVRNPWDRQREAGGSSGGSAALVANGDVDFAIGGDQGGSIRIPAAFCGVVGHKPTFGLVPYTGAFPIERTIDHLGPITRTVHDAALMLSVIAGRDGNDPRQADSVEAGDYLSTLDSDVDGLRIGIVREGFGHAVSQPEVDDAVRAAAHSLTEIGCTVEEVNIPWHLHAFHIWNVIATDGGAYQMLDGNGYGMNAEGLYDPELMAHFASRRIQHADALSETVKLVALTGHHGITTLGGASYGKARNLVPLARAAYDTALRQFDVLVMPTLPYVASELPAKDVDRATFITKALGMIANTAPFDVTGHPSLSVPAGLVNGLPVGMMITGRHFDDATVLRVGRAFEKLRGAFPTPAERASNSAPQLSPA", "assay": "Substrate preference of the enantioselective amidase", "assay_type": "biochemical, Brevibacterium R 312", "details": "compared with the 2-arylpropionamide derivatives, especially 2-phenylpropionamide and 2-(3-benzoylphenyl)propionamide", "source_text": "Furthermore, the selectivity of the amidase towards the R enantiomer of HPPAmide is representative of the selectivity towards the S enantiomer of the 2-arylpropionamide derivatives."}, "[1]": {"assay": "Assay of the enzymic activity: hydrolysis of 2-phenylpropionamide (HPLC)", "assay_type": "biochemical", "details": "enzyme purified to homogeneity; 1 unit = 1 μmol of 2-phenylpropionamide hydrolyzed per h; 30° C., pH 7.5", "method": "The fraction containing the activity is incubated for 30 min at 30° C. in 500 μl of 0.1 M Tris/HCl buffer, pH 7.5, containing 5 mM DTT and 18.1 mM 2-phenylpropionamide. After incubation, 2 ml of an acetonitrile/1 N HCl mixture (90/10) and then 2 ml of a 50 mM H3 PO4 /CH3 CN mixture (75/25) are added to the incubation mixture. After centrifugation at 5000 g for 10 min, an aliquot of the supernatant is injected into an HPLC apparatus for assay of the reaction products.\nColumn: Nucleosil 5-C18 25 cm\nOne activity unit is defined as the amount of enzyme required to hydrolyze 1 μmol of 2-phenylpropionamide per h."}, "[2]": {"assay": "Enantioselective amidase activity with HPPAmide as substrate (HPLC)", "assay_type": "biochemical", "details": "purified enzyme, purity of more than 80%; 1 U = 1 μmol of HPPAcid formed per hour", "method": "b--one unit (U) is equivalent to 1 μmol of HPPAcid formed per hour under the conditions described below.\nConsequently, the enantioselective enzymic activity was detected by using 2-(4-hydroxyphenoxy)propionamide (HPPAmide) as the substrate. The reaction is carried out at 25° C., with shaking, in a 50 mM sodium phosphate buffer, pH 7.0, in the presence of Brevibacterium R 312, and is stopped by the addition of a 55/40/5 (v/v) mixture of 0.05 M phosphoric acid, acetonitrile and 1 N HCl. The culture is then centrifuged and the supernatant is analyzed by reversed-phase HPLC (Hibar-Merck RP-18; 5 μm). Elution is effected with an 85/15 (v/v) solution of 0.005 M phosphoric acid and acetonitrile and the respective concentrations of HPPAmide and HPPAcid are measured by the position of the elution peaks and compared with a standard. The enantiomeric excess, defined as the ratio (R-S)/(R+S) x 100, in which R and S are the respective concentrations of the R and S enantiomers of the HPPAcid, is deduced either from polarimetric measurements (using the sodium absorption at 589 nm) or from HPLC analysis on a chiral column."}},
  "data": [
    {"molecule": "CC(Oc1ccc(O)cc1)C(N)=O", "note": "(racemic) [R,S-2-(4-Hydroxyphenoxy)propionamide]", "values": [
      {"measurement": "substrate quality for the enantioselective amidase", "setting": "enantioselective amidase", "result": "better substrate"}
    ]},
    {"molecule": "B1", "values": [
      {"measurement": "specific activity", "setting": "[1]", "result": "988 U/mg of protein"}
    ]},
    {"molecule": "B2", "values": [
      {"measurement": "specific activity", "setting": "[2]", "result": 815, "unit": "U/mg"}
    ]}
  ]
}
